± gives the uncertainty stated by the source.
Assay: amyloid nucleation score (Sup35N fusion, yeast selection) (log enrichment); library NNK3; higher = more nucleation; inactive = no reads after selection
Procedure, shortened: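 Libraries of peptides of 20 random codons fused to Sup35N were expressed in psi-negative yeast and induced 24 hours with 100 μM copper sulfate. Selection was 7 days at 30°C on medium lacking adenine and uracil, and plasmid inserts were Illumina-sequenced before and after selection. Nucleation score is the DiMSum log enrichment of output over input reads, centred on the mode score of non-aggregating sequences, and sequences with under 100 input reads were left out.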

Substance	amyloid nucleation score
LKCDWC	inactive
ATFRMGRKVPWS	1.01 ± 0.23
KWGSATTCFI	0.067 ± 0.31
WSRSSV	inactive
PVMSS	inactive
VGLALRLCLAVLSDRKWILS	inactive
IMYTRAYLFYTRDHCLFIRV	inactive
ALYERWSTDNVWRRSSQEFL	inactive
RRDSDIDRALSLGYASRTTK	inactive
LRSYFALINRLPCTCTRGGM	inactive
WVPAGCKSVMVGGAG	inactive
WQTTDRLFSVKKSALLVGFC	inactive
NRVSFPRGSKFCTFL	inactive
LSYLFFKPFWA	0.357 ± 0.74
RHVNEGLVRGFNPSRTLKGK	inactive
TIGSAWFGKLGDGLALFGLF	inactive
SRNMLH	inactive
KVFFVRTIIKVRVAGCSVRV	inactive
RCIYTMVWVTNVNMVRRTGA	1.69 ± 0.084
YFFCCLR	2.44 ± 0.059
YFSFFQRVLWYRCAASFNLQ	-0.106 ± 0.63

Substance	amyloid nucleation score
MGLLSTFFVEFFKT	inactive
DNRYVY	inactive
FASTVCEIPSFPWTKPRIMV	inactive
YYLRKVKRKENTSMLHAAFS	inactive
CDMRP	inactive
SMFSLWNS	inactive
RKLFFEFFFCDSVH	inactive
CLTYRSG	inactive
GTLVWNCDGCLDLKGRWVGG	inactive
MVLYYSLILFAHCLKLARHN	inactive
FELYLQLN	0.478 ± 0.38
GFTRKFSFYKRHQSVWITRR	inactive
CTITNWHNKYC	inactive
IYSIVFFSRSLTVRVFGAHY	inactive
IVVRPR	1.24 ± 0.17
PFSSGQSVEYL	inactive
GWAMTWNDVYLSYSIYSHSK	0.514 ± 0.4
LSNQLKDEYHCMWMWWVCPN	1.29 ± 0.13
IRYVFPFDIAHYFYLTKRYG	inactive
TGARMVLCIFGIYSMYTLHN	1.99 ± 0.074
NRENFMVTLLSLWTCNTCQV	2.46 ± 0.054

Substance	amyloid nucleation score
SMHARGDL	inactive
HASSWFYWRIFASGLNSDR	inactive
SVHWEVRFYMDRYVLAYAVT	inactive
HVNSNPHVLASEVK	inactive
WWHVIMYTGHKCNLSCDSVG	inactive
VTKGWQGLGGLMGGEVCPWV	inactive
NTGVENGREVDYARGANRSP	inactive
IALGWFVIRFDEVVKLFKMF	inactive
PLAFWTCCYCLTWNLRLSWQ	1.6 ± 0.059
TLARQWSDP	inactive
LWYYCTQEVIARRDEKA	inactive
VSMVPRNIWCEMFCQTHADI	1.26 ± 0.1
QLTLACSRLQAGLSSQRHLS	inactive
CSASAYDSVIIDRIIYLIRG	inactive
NLVCQLLGRQRDPINPVVCW	inactive
LIDSADWRCVMVVIRLGRCR	inactive
YVCRRVSQDVRNLTKSVMCV	inactive
RLSGVIGT	inactive
WNKGPQTQ	inactive
ASNSIKWFADHFPHSFVN	inactive
DTLLRKFWVIIVIGTALGSM	inactive

Substance	amyloid nucleation score
TSRYIGL	inactive
RWWTCSQSNSGVIFEQIYQT	inactive
IYLNFNKILLMILQIQLWGN	-0.19 ± 0.64
MEVDQTYVRIWC	1.31 ± 0.14
DLWDTCCLII	inactive
YKGFKRIGLEGQFVSSYLFY	inactive
DRNLDVPCLDVLRSMLDVCN	-0.464 ± 0.96
SETKVIGQLRKTSNSEAHNA	0.422 ± 0.67
IGHGYMVDRWILRVVMVVAL	inactive
FGLTTRRRPRNVW	inactive
NYGFGRVSAFYHQLA	inactive
FLSSVSLGDAHSWTFSR	inactive
NLDQHCRCVIGFAITYYVGY	inactive
LLVAYDQIFNF	inactive
GYFARLR	inactive
FVYLSSKYIMSQMFKGKQMY	inactive
MNRMCVLLVNFCVDTD	1.9 ± 0.06
SAAGKQLKSRFIGRR	inactive

From the supplement of paper PMC12042874
